B1: PDZK1 (parent)
chain: RETASLKLLPHQPRIVEMKKGSNG
B2: ZBED3 (parent)
chain: QARLRDVSRREGALGWAPAAPPPL
B3: SMG5 (parent)
chain: TRKLSPGKKRCKDIKRLLVNFMYL

Variants of: B1
Assay: protein stability index of a GFP-peptide fusion (GPS, HEK-293T) (PSI 1-6); higher = more stable
Conditions: c terminus: a fixed tail appended
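Further: lentivirally expressed fusions sorted by FACS into six bins by GFP to DsRed ratio, PSI derived from sequencing read proportions per bin multiplied by bin number.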

Variant	protein stability index
Q12I	2.85
Q12D	3.3
Q12L	3.27
Q12M	3.38
Q12E	2.88
Q12K	3.66
Q12C	3.27
Q12W	3.2
Q12G	3.62
Q12V	3.09
Q12N	3.84
L9T	3.61
L9K	3.99
L9R	3.63
L9V	3.36
L9G	4.12
L9P	3
L9A	3.39
A4T	3.32
A4I	2.47
K20A	3.46
K20T	3.51
K20N	4.28
K20M	3.57
K20V	3.7

Variant	protein stability index
V16G	4.85
V16D	4.18
V16M	4.17
V16Y	3.68
R1A	3.58
R1C	3.34
R1L	3.65
R1P	3.24
R1W	2.09
R1V	3.14
R1E	3.36
E2S	3.62
E2V	2.62
E2T	3.39
E2P	3.65
E2Y	2.64
E2F	3.45
E2R	3.63
L6Q	3.9
L6T	3.63
L6F	3.15
L6P	4.18
L6Y	3.56
L6R	3.37
L6I	3.48

Variant	protein stability index
G21Q	2.92
G21T	2.25
G21A	2.67
G21R	3.9
G21Y	2.13
G21M	2.22
G21C	2.58
G21D	4.48
G21W	2.6
G21I	3.23
G21V	3.56
S5V	3.32
S5P	3
S5K	2.67
S5W	2.36
S5L	3.73
S5C	3.2
E17R	4.02
E17Q	2.92
E17N	4.28
E17T	3.86
E17H	3.67
S22K	4.03
S22L	3.03
S22V	4

Variant	protein stability index
S22M	3.85
S22T	3.51
S22I	3.38
H11V	2.59
H11S	3.52
H11Q	3.23
H11E	3.08
H11P	3.25
H11K	3.53
I15V	3.51
I15E	5.02
I15A	4.78
I15Q	4.72
I15P	4.39
I15T	4.49
I15S	4.69
I15R	4.51
I15N	4.99
I15D	4.66
I15G	5.16
G24S	3.99
G24F	3.05
G24R	4.03
G24Q	4.58
M18Y	3.91

Variant	protein stability index
M18T	4.85
M18S	4.79
M18I	4.21
M18L	4.15
N23S	3.14
N23C	3.25
N23W	3.12
N23E	4.45
N23M	3.24
K7Q	4.74
K7V	3.95
K7L	3.98
K7G	4.32
K7F	3.07
K7A	4.19
K7D	4.97
P10R	3.56
P10Q	3.02
P10M	2.89
P10E	3.14
P10G	3.38
R14M	2.93
R14N	4.13
R14I	3.86
T3M	3.14

Variant	protein stability index
T3I	3.6
T3W	2.58
T3R	3.28
T3A	3.26
L8V	3.92
L8R	3.89
L8S	3.7
L8H	2.81
L8I	3.34
L8F	3.65
K19G	4.83
K19C	2.29
K19R	2.63
P13Y	3.4
P13T	3.99
P13V	4.14
P13C	2.35
P13G	4.14
P13Q	4.81
P13M	3.88
P13R	3.77

Variants of: B2
Assay: as above
Conditions: c terminus: a fixed tail appended

Variant	protein stability index
P23D	3.81
P23I	2.36
P23A	3.38
P23E	3.12
P23W	2.08
P23F	2.79
P23K	3.33
P23S	3.63
P23N	3.18
P23Y	2.06
P23V	2.79
P23C	3.19
P23R	3.33
P23M	2.86
P23L	2.9
P23G	3.73
P23Q	3.5
P21V	3.27
P21L	2.67
P21S	3.5
P21E	3.87
P21R	3.49
P21N	2.84
P21A	3.1
P21I	2.84
P21G	3.02
P21K	3.55
P21F	2.48

Variant	protein stability index
P21W	2.12
P21Q	3.22
P21C	2.31
P21M	3.2
P21D	3.96
P21Y	2.02
A20W	1.96
P22N	3.26
P22H	3.45
P22S	3.2
P22E	4.2
P22V	2.46
P22A	3.65
P22M	3.16
P22F	2.89
P22Y	2.37
P22K	3.62
P22W	2.62
P22D	3.81
P22T	3.11
P22Q	3.29
P22C	2.29
P22R	3.31
P22I	2.74
P22G	3.34
P22L	3.46
P18E	3.56

Variants of: B3
Assay: as above
Conditions: c terminus: a fixed tail appended

Variant	protein stability index
R10L	3.06
R10C	2.23
R10H	2.2
R10K	2.07
R10S	2.03
R10D	2.02
R10Y	3.14
R10Q	3
R10N	3.09
R10G	3.25
R10P	3.4
R10E	2.67
R2I	3.09
R2A	2.29
R2Y	4.16
R2P	2.76
R2C	2.19
R2M	3
R2F	3.38
R2S	2.78
R2T	2.24
R2N	1.94
R2E	1.04

Variant	protein stability index
R2Q	1.59
R2V	2.98
R2H	1.38
L4C	2.54
L4S	1.47
L4Q	2.06
L4T	1.62
L4R	1.15
L4P	2.58
L4K	2.07
L4Y	2.63
L4G	1.36
L4A	1.76
L4I	3.12
L4D	1.33
L4H	2.64
L4N	1.22
K9S	2.86
K9E	2.32
K9L	3.19
K9N	4.29
K9F	3
K9P	2.4

Variant	protein stability index
K9V	2.04
K9T	2.64
K9G	1.4
K9D	3.59
K9C	2.14
K9M	2.31
K9Y	2.15
T1V	3.92
T1A	1.51
T1H	3.62
T1Q	2.7
T1G	1.92
T1W	1.45
T1C	2.22
T1I	1.95
T1S	3.96
T1M	2.88
T1R	4.28
T1E	2.17
G7L	4.07
G7P	1.96
G7K	3.32
G7M	3.1

Variant	protein stability index
G7V	2.47
G7I	2.87
G7A	2.87
G7N	2.08
G7S	2.17
G7F	2.24
G7Q	1.86
G7R	2.47
G7E	1.97
G7T	2.22
K8G	1.05
K8E	3.52
K8T	2.64
K8F	4.35
K8L	2.75
K8R	2.2
K8W	2.79
K8N	1.74
K8H	3.49
K8C	3.19
K8S	1.98
K3A	2.18
K3W	1.86

Variant	protein stability index
K3M	2.94
K3C	2.31
K3N	2.16
K3L	1.85
K3V	3.52
K3F	2.44
K3P	2.52
K3I	2.34
K3E	2.41
K3G	3.74
K3S	1.59
K3T	1.66
S5D	2.41
S5K	4.05
S5L	1.55
S5Q	2.62
S5G	2.7
S5F	4.07
S5T	1.02
S5P	2.54
P6G	2.69
P6S	2.1
P6L	2.45

Variant	protein stability index
P6T	2.59
P6N	1.9
P6H	2.4
P6D	2.55
P6Q	3.24
P6V	3.45
P6Y	3.31
C11A	3.02
C11D	1.79
C11F	3.81
C11P	2.26
C11I	4.05
C11H	1.58
C11M	1.93
C11E	2.58
C11G	1.42
C11K	2
C11L	2.46
